20 sequences from the DeepSol protein solubility set can be followed below.

The data set can be described thus: soluble on expression in E. coli; label from the status in PepcDB or PDB records.
Regarding “MSPMNRQRKNKSNVLNEKDERPGCIIKEKSSVRSMAKTQPTSGRTISLSEINKPIALSKKNTEIKAAVEIQNRLTKKMAKNSERRKKMAHGPEMTAQNRTQERIDFVEFLDRHYQVMQAGVSTVKVHKMHYTKEEFENVIYEAQTIFSSEKALVDIDPPCVVVGNLHGQFNDLINMFILLGRPPETVYVFTECVTSIPKCGEEIWALFQRCFNNLPISALIATKILCMHGGLSPALTCLDELRNHPKPIRNPFRGIVNDMLWADPDPSVFEWKTSSRGSGFTFGTNVIDDVCKRLGVELIIRAHQMCFDGYWVLSGRKLITIFSAPMYCNFYKNTGCVLKVDETLGIQTVAFVPESENIEKIIEEMNRVWDISIDCIE”, the “soluble on expression in E. coli” value is given as “not soluble”.
In the case of “MSPQVSIVIPNHDYGRYLDACLDSLAAQTLPVQRMEVIVVDDASGDDSLERAARWQACHPWKAFTVVPLSRVGRPGPVRNAGLRRAQAALMLCLDPDDTLAPEALVRMVEALDNAPHAHVASSDYFEHRGEHIRRVNIPDDDSNVLPTQNPCHSASLFRREVWEATGGYTAATAYEDWDFWVRAASCGMRRVRVPYPLVHYRLRDDGFWVGASADDAKAKAAIVRRTPAFFAPEVRGWAVAILRGETWMPAFPRGVIPTAEALRAFRDDCMARLGPQADSLFTALPGWPRKTGESSRSGETGQSGLEHHHHHH”, the “soluble on expression in E. coli” value was “not soluble”.
The result for “MSQEVEETLKRIQSHKGVVGTIVVNNEGIPVKSTLDNTTTVQYAGLMSQLADKARSVVRDLDPSNDMTFLRVRSKKHEIMVAPDKDFILIVIQNPTD” reads “soluble”.
“MSQIIWGAYAQRNTEDHPPAYAPGYKTSVLRSPKNALISIAETLSEVTAPHFSADKFGPKDNDLILNYAKDGLPIGERVIVHGYVRDQFGRPVKNALVEVWQANASGRYRHPNDQYIGAMDPNFGGCGRMLTDDNGYYVFRTIKPGPYPWRNRINEWSPAHIHFSLIADGWAQRLISQFYFEGDTLIDSCPILKTIPSEQQRRALIALEDKSNFIEADSRCYRFDITLRGRRATYFENDLT”: the “soluble on expression in E. coli” value was “soluble”.
The result for “MSQMELIKKLREATGAGMMDVKRALEDAGWDEEKAVQLLRERGAMKAAKKADREAREGIIGHYIHHNQRVGVLVELNCETDFVARNELFQNLAKDLAMHIAMMNPRYVSAEEIPAEELEKERQIYIQAALNEGKPQQIAEKIAEGRLKKYLEEVVLLEQPFVKDDKVKVKELIQQAIAKIGENIVVRRFCRFELGA” reads “soluble”; that for “MSQNHVIELANTLKQRPIVCDYTGGRFRLTNEGLTYIGIDRDGTPLPPRWICAPLHIVAKTRDAQSGEWGRLLEWQDDDGITHQWAMPLALLQGDASDVRRELARLGLSISPHRTARDLLASYLQVFPVDARARCVDKLGWHGDVFVTASQCIGQSTEKIVFQNTNAIEPAMSIKGSVDKWRDSIGRLASGNSRLVFAISVALAPVLAKIVGEDSGGFHFRGASSSGKSTALSLAASVWGNPQSYCRLWRSTTNGLEGLAALHNDGLLILDELSQMDPREAGEAAYLLANGQGKTRASRTGTVRQSSRWSLFFLSAGEESLTALMAKSGQRINAGQEIRLADIEADAGCQMGIFETIHDQLSPASMALSLKKYSSGYHGAIGRAWLNQVVANRQTISRFITDTIQSFVDIVIQPDATGQIIRVARRFALVAAAGELASQFGLTGWKKGESFHAAKTCFIAWQDAFGVDGHREDRAIMAQVRAFFESHGASRFDNVNSPNNDKILNRAGFYHTDGEGFRIYMVLTETYKNELCKGFDQRTVTRVLLQAGWLKPASDGKASHKPRIKGVGTPRLYVFTGKIWGGELEHHHHHH”, “soluble”.
Next, “MSQQKSDFADDADIDESLDELASEETIEETVENLEANGFEVIVVNSADDALAELQSLIPAEASVMNGHSTTLEEIGFDEYLSDGDHGWESLPEEIWSIDDDAKRQAARRESQTADYFLGGINGISQTGELVAADRSGSRIGAYPFAASNVVIVSGVNKIVPTLEDALDRLETVAYPLENERAKEAYGVDSAIAKQLILRQELEEGRTTVVLIREHLGYLEHHHHHH”: “soluble”.
For “MSQSKADYINVIGAGLAGSEAAYQIAKRGIPVKLYEMRGVKATPQHKTTNFAELVCSNSFRGDSLTNAVGLLKEEMRRLDSIIMRNGEAHRVPAGGAMAVDREGYAEAVTAEIESHPLIEVIRKEITEIPDDAITVIASGPLTSDALAEKIHELNGGDGFYFYDAAAPIVDKATIDMNKVYLKSRYDKGEAAYLNCPMTKEEFMAFYEALTTAEEAPLNSFEKEKYFEGCMPIEVMAKRGIKTMLYGPMKPVGLEYPEDYMGPRDGDFKTPYAVVQLRQDNAAGSLYNIVGFQTHLKWGEQKRVFQMIPGLENAEFVRYGVMHRNSYMDSPNLLKQTFQSKSNPNLFFAGQMTGVEGYVESAASGLVAGINAARLFKGEDEVIFPHTTAIGSLPYYVTHAESKHFQPMNVNFGIIKELEGPRIRDKKERYEKIAERSLKDLQTFIDALEHHHHHH”, the “soluble on expression in E. coli” value is reported as “soluble”.
Next, “MSQSLFSQPLNVINVGIAMFSDDLKKQHVEVTQLDWTPPGQGNMQVVQALDNIADSPLADKIAAANQQALERIIQSHPVLIGFDQAINVVPGMTAKTILHAGPPITWEKMCGAMKGAVTGALVFEGLAKDLDEAAELAASGEITFSPCHEHDCVGSMAGVTSASMFMHIVKNKTYGNIAYTNMSEQMAKILRMGANDQSVIDRLNWMRDVQGPILRDAMKIIGEIDLRLMLAQALHMGDECHNRNNAGTTLLIQALTPGIIQAGYSVEQQREVFEFVASSDYFSGPTWMAMCKAAMDAAHGIEYSTVVTTMARNGVEFGLRVSGLPGQWFTGPAQQVIGPMFAGYKPEDSGLDIGDSAITETYGIGGFAMATAPAIVALVGGTVEEAIDFSRQMREITLGENPNVTIPLLGFMGVPSAIDITRVGSSGILPVINTAIAHKDAGVGMIGAGIVHPPFACFEKAILGWCERYGV”: “soluble”; “MSQTLKQLAMAKMAGFRHKTVVVPEWEGVKVVLREPSGEAWLRWQEVVKGGGDDENVSVSEKAHRNLCADVVLFIDVLCDTDKQPVFSVDEEEQVREIYGPVHSRLLKQALDLINNADEAREKSQPPA”: “not soluble”; “MSQTPPPKDGKNPEAMEVEDAIDEEILKMSTEDLKSRTHLLDNEIRIMRSEVQRINHSATTLKERIKENTERIKVNKTLPYLVSNVVELLDLEDNTEEEGANVDLDAQKTKCAVIKTSTRATYFLPVVGLVDPDELKPGDLVGVNKDSYLILEKLPAEYDSRVKAMEVDERPTEQYSDIGGCDKQIQELIEAVVLPMTHKDRFVNLGIHPPKGVLMYGPPGTGKTMMARAVAAQTKSTFLKLAGPQLVQMFIGDGAKLVRDAFALAKEKAPAIIFIDELDAIGTKRFDSEKAGDREVQRTMLELLNQLDGFQPNDDIKVIAATNRIDVLDPALLRSGRLDRKIELPHPNEDARARIMQIHSRKMNVNKDVNFEELARCTDDFNGAQCKAVCVEAGMIALRRDATEILHEDFMDAILEVQAKKKASLNYYA”: “not soluble”.
“MSQVTEQSVRFQTALASIKLIQASAVLDLTEDDFDFLTSNKVWIATDRSRARRCVEACVYGTLDFVGYPRFPAPVEFIAAVIAYYVHPVNIQTACLIMEGAEFTENIINGVERPVKAAELFAFTLRVRAGNTDVLTDAEENVRQKLRAEGVM”: the “soluble on expression in E. coli” value is recorded as “soluble”.
Next, “MSQYSENIIIGAGAAGLFCAAQLAKLGKSVTVFDNGKKIGRKILMSGGGFCNFTNLEVTPAHYLSQNPHFVKSALARYTNWDFISLVAEQGITYHEKELGQLFCDEGAEQIVEMLKSECDKYGAKILLRSEVSQVERIQNDEKVRFVLQVNSTQWQCKNLIVATGGLSMPGLGATPFGYQIAEQFGIPVIPPRASLVPFTYRETDKFLTALSGISLPVTITALCGKSFYNQLLFTHRGISGPAVLQISNYWQPTESVEIDLLPNHNVEEEINQAKQSSPKQMLKTILVRLLPKKLVELWIEQGIVQDEVIANISKVRVKNLVDFIHHWEFTPNGTEGYRTAEVTMGGVDTKVISSKTMESNQVSGLYFIGEVLDVTGWLGGYNFQWAWSSAYACALSISRQ”: “soluble”; “MSRATYIIGALAGSAVVAYVCDKVISDDKLFGGTTPGTITNKEWGAATEERLQAWPRVAGPPVVMNPISRQNFIVKSRPE”: “not soluble”.
Next, “MSRDIDYGNLMHTAMRGLIKTVLADVAQHGLPGAHHFFITFDTRYEGVQLADWLADRYPGEMTIVMQHWYENLDVGEDGFAITLNFGDSPEPLYIPYDAIRTFVDPSVEFGLRFESPDFDEDDEDDIEVEEEPDAPKPDAEVVSLDSFRKPLEHHHHHH”: “soluble”.
The result for “MSREANPFKKMPTILMPDELMAKALRRGEKVANEMRQKELPWLLKARFVEEHKVRTIASVVADNLQKVIDKTPPVRKLPKFYQEMVEVLVGIDDFKKSMGAFKWASELVRKLGNEYARKIRKARTPQQAGKLRKEFVGRVKSILEQIHPEMAFVAVAREKLKDLPTFKDLPTVVIAGYPNVGKSTLLKKLTGADVEINSYPFTTKGINVGYIGEIQMVDTPGLLDRPLYERNDIELQAILALNYLANLILFIIDASEFCGYTIEEQINLLKEIKDLFKAPIVVAINKIDLVDEERVKEIEEKLKEVGIEEILKISADKDIGLDELKERLKKIAIKEFLKDKDAENKELECLEHHHHHH” reads “soluble”.
With “MSRHPLKIVIAGAGIGGLAAAACLKAAGFEVELYERARELRAVGSALSLMPNALTALERVGVRPDLTRAQAFDSLRFLTRRGRPIRAIDFGGLARQLGQPSLAIHRASLQQALLEQARDCRIELGVSATGYLRHADGEGVTVLCSDGREVHADVLIGADGFNSAIRATMTGPERPTDWHYVIWRATPAFRHPKVTPGYVAHYWGRGQRFGLADIGEGNVYWWGTRNMPAEQAKDWRGGKAGIQRLYAGWADEVQAVIEATPEADISSLPAQDRPFLERWGDGPVTLLGDAAHPMLTSLGQGAAIAIEDAAVLAHCLATIDDPQAALRAYENRRRDRARAMVETSRALSRIEQLEHPLRTVARDLYFRFAPERTFARQNELALTFPGVELEHHHHHH”, the “soluble on expression in E. coli” value is recorded as “not soluble”.
For “MSRLPLLLLSVLLATPAAQASDCPDLALVLALDSSLSIDRAEFALQAEGYAEAFRSPAVQAALAAAGTVDVAAVVWSDGAAPPARLGWQRIAAPEDARRLAVRLAALERVAPGRTGVGGGLAAALEMLAGHGCAGRRLVNLSGDGRETLAPRMGLRGQLMRARAEAEALGATVNALAVTDEEADLPDWFRSHVIVGPGAFVMETREFRGFAEAVARKLVREIAPPALAAGRPGLPPHRLTPGGRDHPARRSLEHHHHHH”, the “soluble on expression in E. coli” value is “not soluble”.
Next, “MSRNDLFKQPLDTINVGIDFIHEDMKKQGIPSHQVNWAPPANGDPELLKLLDQLKNPTLYEKIQQANEEAVTRIIQSKPILVGFDKAINVMPDMTETTILHAGPPITYENMCGPMKGAVQGALVFEGLAKDLADADRVARSGAITFSPCHEHDAVGSMAGVTSPNMYVHIIKNETYGNTAFTNLSEQLAKVLRFGANDQSVVDRLIWMRDVLGPLLHDAMTFCPEGIDLRLMLSQALHMGDECHNRNVAGSTLLVQALTPYMVQTDFSREQLKEVFEFLGSSDYFSGPTWMGAAKCALDAGHNVENSTIVTTMCRNGVEFGIRVSGIGGNHWFTGPAQRVIGPMFAGYTQEDAGLDMGDSAITETYGVGGFAMAAAPAIVPLVGGTVAEALNYSKEMLEITTKENPNVTIPVLDFMGIPTGIDVLKVLETGMLPVINTAIAHKEPGIGMIGAGLTNPPANVFNEALKALVATIN”: “soluble”.
The result for “MSRPPLPPFTRETATQKVRMAEDAWNSRDPARVSLAYTPDSRWRNRAEFLQGRDAIVEFLTRKWAKEHDYRLIKDLWAFDGRFIAVRFQYEWRDEAGLWYRSYGNEQWEFDDDGLMRRREASINDVAISEGDRRFHWPAPGPRPDDVPGLAADPFLEHHHHHH” reads “soluble”.
